{
  "source": "patent US20150165065A1",
  "about": "(AVIDBIOTICS, published 2015)",
  "key": {"FGFR3 (coated on wells) [1]": {"target": "FGFR3 (coated on wells) (UniProt P22607)", "assay": "ELISA on FGFR3-coated wells after 1 hour at 60 C and 1 hour back at room temperature [panel A]"}, "biotinylated human NKG2D [2]": {"target": "T1, biotinylated human NKG2D (human, UniProt P26718 78-216, limits assumed, biotinylated (site not stated))", "T1 construct": "Surface-coated in biolayer interferometry (Octet); also called recombinant biotinylated NKG2D", "T1 sequence (looked up)": "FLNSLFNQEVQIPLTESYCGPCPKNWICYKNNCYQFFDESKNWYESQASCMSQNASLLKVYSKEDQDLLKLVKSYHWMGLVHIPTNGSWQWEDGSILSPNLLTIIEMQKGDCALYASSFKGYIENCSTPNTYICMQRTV", "assay": "BLI (Octet), coated biotinylated human NKG2D, 100 nM analyte"}, "human NKG2D-Fc [3]": {"target": "T2, human NKG2D-Fc (human, UniProt P26718 78-216, limits assumed)", "T2 construct": "construct not described; also called human NKG2D-Fc reagent; not shown: Fc part", "T2 sequence (looked up)": "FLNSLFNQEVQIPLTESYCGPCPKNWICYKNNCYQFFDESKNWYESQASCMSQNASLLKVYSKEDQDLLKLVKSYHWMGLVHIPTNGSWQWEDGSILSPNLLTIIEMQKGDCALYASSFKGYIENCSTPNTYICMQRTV", "assay": "competition ELISA, 2 nM human NKG2D-Fc on coated WT sMICA", "source_text": "(§1) As for the NKG2D ligands (NKG2DLs) in the above example, we attached polypeptides directly to each of these 4 modified α1-α2 NKG2DLs using a linker peptide. The 4 His-tagged proteins (SEQ ID NOs.: 131-134) were expressed in insect cells and purified to characterize their NKG2D binding affinities and kinetic binding parameters. Using a competitive binding ELISA, we determined the relative NKG2D binding affinities of the 4 modified α1-α2 variants."}, "human NKG2D-Fc [4]": {"target": "T2, human NKG2D-Fc", "assay": "competition ELISA, human NKG2D-Fc on coated WT sMICA", "source_text": "as §1"}, "biotinylated human NKG2D [5]": {"target": "T1, biotinylated human NKG2D", "assay": "BLI (Octet)"}, "[6]": {"target": "NKG2D receptor on NKL effector cells (human) (UniProt P26718)", "assay": "cell-based or functional assay"}, "mouse NKG2D-Fc": {"target": "T3, mouse NKG2D-Fc (mouse, UniProt O54709 94-232, limits assumed)", "T3 construct": "Construct not described; also called murine NKG2D-Fc; murine NKG2D; not shown: Fc part", "T3 sequence (looked up)": "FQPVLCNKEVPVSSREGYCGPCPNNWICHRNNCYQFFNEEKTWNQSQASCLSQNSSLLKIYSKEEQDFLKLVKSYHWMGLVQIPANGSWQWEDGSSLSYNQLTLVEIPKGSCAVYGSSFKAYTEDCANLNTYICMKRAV", "assay": "competition ELISA: titrated soluble protein inhibits binding of mouse NKG2D-Fc to plate-coated MICA [panel B]", "source_text": "as §1"}, "biotinylated human NKG2D [7]": {"target": "T1, biotinylated human NKG2D", "assay": "BLI (Octet), Kd = kOFF/kON"}, "FGFR3 (coated on wells) [8]": {"target": "T4, FGFR3 (coated on wells) (UniProt P22607 23-375, limits assumed)", "T4 construct": "Coated at 2 ug/ml on Maxisorp plates; also called Fibroblast Growth Factor Receptor 3", "T4 sequence (looked up)": "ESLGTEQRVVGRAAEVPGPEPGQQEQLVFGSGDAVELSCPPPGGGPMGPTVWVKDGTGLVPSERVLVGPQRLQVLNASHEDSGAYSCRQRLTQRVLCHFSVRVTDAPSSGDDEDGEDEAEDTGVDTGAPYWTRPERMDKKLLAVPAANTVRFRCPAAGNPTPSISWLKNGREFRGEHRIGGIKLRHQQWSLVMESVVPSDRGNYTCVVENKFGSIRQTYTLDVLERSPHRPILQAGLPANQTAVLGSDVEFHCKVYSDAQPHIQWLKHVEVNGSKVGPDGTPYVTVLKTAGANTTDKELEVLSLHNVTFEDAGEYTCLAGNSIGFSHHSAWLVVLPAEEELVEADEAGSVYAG", "assay": "ELISA on FGFR3-coated wells (2 ug/ml), bound sMICA detected with NKG2D-Fc and anti-Fc-HRP", "experimental": "The purified MICA-α3-iFv proteins were tested in a FGFR3-binding ELISA to confirm simultaneous binding to the FGFR3 target and the NKG2D receptor. FGFR3 in phosphate buffered saline (PBS) was coated onto Maxisorp plates at 2 ug/ml concentration. Each MICA protein was titrated, allowed to bind FGFR3 for 1 hour, and washed to remove unbound sMICA protein. The bound MICA-α3-iFv protein was detected using NKG2D-Fc and anti-Fc-HRP conjugate."}, "FGFR3 (coated on wells) [9]": {"target": "T4, FGFR3 (coated on wells)", "assay": "ELISA on FGFR3-coated wells after 1 hour at 80 C and 1 hour back at room temperature [panel B]"}},
  "data": [
    {"molecule": "MICA-scFv (traditional scFv constructed from MAbR3 fused to the C-terminus of soluble MICA) (from UniProt Q29983 24-307) (designed binder)", "values": [
      {"measurement": "EC50 (read off the curve)", "setting": "FGFR3 (coated on wells) [1]", "result": 5, "unit": "nM"}
    ]},
    {"molecule": "α1-α2 variant 17 (designed binder, His-tagged protein from insect cells, modified α1-α2 domain with an attached polypeptide) EPHSLRYNLTVLSWDGSVQSGFLTEVHLDGQPFLRCDRQKCRAKPQGQWAEDVLGNKTWDRETRDLTLWGKDLRMTLAHIKDQKEGLHSLQEIRVCEIHEDNSTRSSQHFYYDGELFLSQNLETLEWTMPQSSRAQTLAMNVRNFLKEDAMETDTHYHAMRADCLQELRRYLKSGVVLRRTVPPMVQVTRSEASGGSGDRVTITCRASQDVSTAVAWYQQKPGKAPKLLIYSASFLYSGVPSRFSGSGSGTDFTLTISSLQPEDFATYYCQQSYTTPPTFGQGTKVEIKGGSSRSSSSGGGGSGGGGEVQLVESGGGLVQPGGSLRLSCAASGFTFTSTGISWVRQAPGKGLEWVGRIYPTNGSTNYADSVKGRFTISADTSKNTAYLQMNSLRAEDTAVYYCARTYGIYDLYVDYTEYVMDYWGQGTLVTVSSGGSSRSSSSGGGGSGGGGDIQMTQSPSSLSASGGSGQITVTCRASGFYPWNITLSWRQDGVSLSHDTQQWGDVLPDGQGTYQTWVATRISQGEEQRFTCYMEHSGQHSTHPVPSGKGSHHHHHH", "values": [
      {"measurement": "koff", "setting": "biotinylated human NKG2D [2]", "result": "7e-05", "unit": "s⁻¹"},
      {"measurement": "kon", "setting": "biotinylated human NKG2D [2]", "result": 200000, "unit": "M⁻¹ s⁻¹"},
      {"measurement": "IC50", "setting": "human NKG2D-Fc [3]", "result": 0.6, "unit": "nM"},
      {"measurement": "fold better binding than WT NKG2DL (IC50)", "setting": "human NKG2D-Fc [4]", "result": 32, "unit": "fold"},
      {"measurement": "fold affinity increase relative to WT α1-α2", "setting": "biotinylated human NKG2D [5]", "result": "~30", "unit": "fold"},
      {"measurement": "fold reduction in the off-rate relative to WT", "setting": "biotinylated human NKG2D [5]", "result": 18, "unit": "fold"},
      {"measurement": "NK-mediated lysis of FGFR3-expressing P815 cells (calcein release)", "setting": "[6]", "result": 15, "unit": "fold"},
      {"measurement": "IC50 (read off the curve)", "setting": "mouse NKG2D-Fc", "result": "~1", "unit": "nM"},
      {"measurement": "Kd", "setting": "biotinylated human NKG2D [7]", "result": 0.4, "unit": "nM"}
    ]},
    {"molecule": "α1-α2 variant 18 (designed binder, His-tagged protein from insect cells, modified α1-α2 domain with an attached polypeptide) EPHSLRYNLTVLSWDGSVQPGFLTEVHLDGQPFLRCDRQKCRAKPQGQWAEDVLGNKTWDRETRDLTLWGKDLRMTLAHIKDQKEGLHSLQEIRVCEIHEDNSTRSSQHFYYDGELFLSQNLETLEWTMPQSSRAQTLAMNVRNFLKEDAMETDTHYHAMRADCLQELRRYLKSGVVLRRTVPPMVQVTRSEASGGSGDRVTITCRASQDVSTAVAWYQQKPGKAPKLLIYSASFLYSGVPSRFSGSGSGTDFTLTISSLQPEDFATYYCQQSYTTPPTFGQGTKVEIKGGSSRSSSSGGGGSGGGGEVQLVESGGGLVQPGGSLRLSCAASGFTFTSTGISWVRQAPGKGLEWVGRIYPTNGSTNYADSVKGRFTISADTSKNTAYLQMNSLRAEDTAVYYCARTYGIYDLYVDYTEYVMDYWGQGTLVTVSSGGSSRSSSSGGGGSGGGGDIQMTQSPSSLSASGGSGQITVTCRASGFYPWNITLSWRQDGVSLSHDTQQWGDVLPDGQGTYQTWVATRISQGEEQRFTCYMEHSGQHSTHPVPSGKGSHHHHHH", "values": [
      {"measurement": "koff", "setting": "biotinylated human NKG2D [2]", "result": "9e-05", "unit": "s⁻¹"},
      {"measurement": "kon", "setting": "biotinylated human NKG2D [2]", "result": 230000, "unit": "M⁻¹ s⁻¹"},
      {"measurement": "IC50", "setting": "human NKG2D-Fc [3]", "result": 0.5, "unit": "nM"},
      {"measurement": "fold better binding than WT NKG2DL (IC50)", "setting": "human NKG2D-Fc [4]", "result": 38, "unit": "fold"},
      {"measurement": "fold affinity increase relative to WT α1-α2", "setting": "biotinylated human NKG2D [5]", "result": "~30", "unit": "fold"},
      {"measurement": "fold reduction in the off-rate relative to WT", "setting": "biotinylated human NKG2D [5]", "result": 18, "unit": "fold"},
      {"measurement": "NK-mediated lysis of FGFR3-expressing P815 cells (calcein release)", "setting": "[6]", "result": 15, "unit": "fold"},
      {"measurement": "IC50 (read off the curve)", "setting": "mouse NKG2D-Fc", "result": "~1", "unit": "nM"},
      {"measurement": "Kd", "setting": "biotinylated human NKG2D [7]", "result": 0.4, "unit": "nM"}
    ]},
    {"molecule": "MICA-α3-iFv.1 (designed binder) EPHSLRYNLTVLSWDGSVQSGFLTEVHLDGQPFLRCDRQKCRAKPQGQWAEDVLGNKTWDRETRDLTGNGKDLRMTLAHIKDQKEGLHSLQEIRVCEIHEDNSTRSSQHFYYDGELFLSQNLETKEWTMPQSSRAQTLAMNVRNFLKEDAMKTKTHYHAMHADCLQELRRYLKSGVVLRRTVPPMVQVTRSEASGDRVTITCRASQDVSTAVAWYQQKPGKAPKLLIYSASFLYSGVPSRFSGSGSGTDFTLTISSLQPEDFATYYCQQSYTTPPTFGQGTKVEIKGGSSRSSSSGGGGSGGGGEVQLVESGGGLVQPGGSLRLSCAASGFTFTSTGISWVRQAPGKGLEWVGRIYPTNGSTNYADSVKGRFTISADTSKNTAYLQMNSLRAEDTAVYYCARTYGIYDLYVDYTEYVMDYWGQGTLVTVSSGGSSRSSSSGGGGSGGGGDIQMTQSPSSLSASGQITVTCRASGFYPWNITLSWRQDGVSLSHDTQQWGDVLPDGQGTYQTWVATRISQGEEQRFTCYMEHSGQHSTHPVPSGKGSHHHHHH", "values": [
      {"measurement": "EC50 (read off the curve)", "setting": "FGFR3 (coated on wells) [8]", "result": "~1", "unit": "nM"}
    ]},
    {"molecule": "MICA-α3-iFv.2 (designed binder) EPHSLRYNLTVLSWDGSVQSGFLTEVHLDGQPFLRCDRQKCRAKPQGQWAEDVLGNKTWDRETRDLTGNGKDLRMTLAHIKDQKEGLHSLQEIRVCEIHEDNSTRSSQHFYYDGELFLSQNLETKEWTMPQSSRAQTLAMNVRNFLKEDAMKTKTHYHAMHADCLQELRRYLKSGVVLRRTVPPMVQVTRSEASGGSGDRVTITCRASQDVSTAVAWYQQKPGKAPKLLIYSASFLYSGVPSRFSGSGSGTDFTLTISSLQPEDFATYYCQQSYTTPPTFGQGTKVEIKGGSSRSSSSGGGGSGGGGEVQLVESGGGLVQPGGSLRLSCAASGFTFTSTGISWVRQAPGKGLEWVGRIYPTNGSTNYADSVKGRFTISADTSKNTAYLQMNSLRAEDTAVYYCARTYGIYDLYVDYTEYVMDYWGQGTLVTVSSGGSSRSSSSGGGGSGGGGDIQMTQSPSSLSASGGSGQITVTCRASGFYPWNITLSWRQDGVSLSHDTQQWGDVLPDGQGTYQTWVATRISQGEEQRFTCYMEHSGQHSTHPVPSGKGSHHHHHH", "values": [
      {"measurement": "EC50 (read off the curve)", "setting": "FGFR3 (coated on wells) [8]", "result": "~2", "unit": "nM"},
      {"measurement": "EC50 (read off the curve)", "setting": "FGFR3 (coated on wells) [9]", "result": "~5", "unit": "nM"}
    ]}
  ]
}
